Experimental findings from US20240398767A1, “INHIBITORS OF THE MTDH-SND1 PROTEIN COMPLEX FOR CANCER THERAPY” (The Trustees of Princeton University, priority 2021, published 2024) are described below.

T1: SND1 (endogenous, SCP28 breast cancer cell lysate) (human, UniProt Q7KZF4 2-910)
T1 construct: Detected by Western blot after MTDH immunoprecipitation; also called Staphylococcal nuclease domain-containing 1
T1 sequence (looked up): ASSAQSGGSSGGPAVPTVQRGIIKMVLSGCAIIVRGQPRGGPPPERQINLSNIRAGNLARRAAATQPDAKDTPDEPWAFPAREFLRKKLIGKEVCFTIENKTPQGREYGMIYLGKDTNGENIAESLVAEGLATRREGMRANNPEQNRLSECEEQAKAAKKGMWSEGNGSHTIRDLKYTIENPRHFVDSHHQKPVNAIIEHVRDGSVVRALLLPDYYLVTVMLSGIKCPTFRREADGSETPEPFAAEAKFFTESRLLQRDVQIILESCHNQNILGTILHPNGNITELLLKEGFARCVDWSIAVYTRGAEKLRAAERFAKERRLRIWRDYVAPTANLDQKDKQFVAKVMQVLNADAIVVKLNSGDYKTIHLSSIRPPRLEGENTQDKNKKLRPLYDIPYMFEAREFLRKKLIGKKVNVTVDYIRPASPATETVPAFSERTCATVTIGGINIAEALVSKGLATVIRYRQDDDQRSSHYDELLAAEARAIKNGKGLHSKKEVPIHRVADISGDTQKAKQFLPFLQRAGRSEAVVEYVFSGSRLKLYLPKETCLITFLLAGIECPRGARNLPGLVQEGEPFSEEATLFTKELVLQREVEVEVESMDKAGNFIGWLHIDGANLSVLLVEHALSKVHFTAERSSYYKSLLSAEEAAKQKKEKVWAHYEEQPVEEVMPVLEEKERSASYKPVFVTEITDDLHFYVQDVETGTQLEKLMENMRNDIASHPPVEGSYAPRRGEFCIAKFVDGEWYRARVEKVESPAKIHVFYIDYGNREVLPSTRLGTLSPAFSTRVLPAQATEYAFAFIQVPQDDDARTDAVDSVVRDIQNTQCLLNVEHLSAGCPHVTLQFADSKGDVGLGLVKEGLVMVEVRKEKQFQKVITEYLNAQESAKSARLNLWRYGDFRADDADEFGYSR

T2: SND1-NLuc
T2 chain: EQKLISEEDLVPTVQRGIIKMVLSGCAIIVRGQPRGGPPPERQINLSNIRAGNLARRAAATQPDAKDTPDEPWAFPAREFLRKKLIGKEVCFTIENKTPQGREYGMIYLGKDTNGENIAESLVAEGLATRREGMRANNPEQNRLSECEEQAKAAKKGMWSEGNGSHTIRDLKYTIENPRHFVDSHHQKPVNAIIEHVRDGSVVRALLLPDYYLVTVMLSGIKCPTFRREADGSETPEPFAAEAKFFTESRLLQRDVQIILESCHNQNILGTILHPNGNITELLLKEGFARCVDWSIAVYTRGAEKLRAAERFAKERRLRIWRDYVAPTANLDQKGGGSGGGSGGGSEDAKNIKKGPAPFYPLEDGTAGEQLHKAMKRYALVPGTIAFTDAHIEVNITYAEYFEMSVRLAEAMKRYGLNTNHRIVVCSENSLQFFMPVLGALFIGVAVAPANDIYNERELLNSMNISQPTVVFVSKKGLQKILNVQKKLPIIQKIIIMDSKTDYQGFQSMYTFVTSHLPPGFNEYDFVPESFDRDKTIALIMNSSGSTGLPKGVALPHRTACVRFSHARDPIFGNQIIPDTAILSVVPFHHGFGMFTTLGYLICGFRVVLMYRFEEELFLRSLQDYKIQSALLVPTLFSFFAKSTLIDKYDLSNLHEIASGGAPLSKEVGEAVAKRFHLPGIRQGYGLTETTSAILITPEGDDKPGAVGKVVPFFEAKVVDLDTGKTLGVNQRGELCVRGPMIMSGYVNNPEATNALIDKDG

B1: SND1-NLuc (other)
chain: T2 chain
notes: Expressed in HEK293T cells and used as cell lysate; also called Myc-SND1-NLuc; split-luc component
B2: CLuc-MTDH (other)
chain: MSGYVNNPEATNALIDKDGWLHSGDIAYWDEDEHFFIVDRLKSLIKYKGYQVAPAELESILLQHPNIFDAGVAGLPDDDAGELPAAVVVLEHGKTMTEKEIVDYVASQVTTAKKLRGGVVFVDEVPKGLTGKLDARKIREILIKAKKGGKSKLGGGSGGGSSSADPNSDWNAPAEEWGNWVDEYPYDVPDYA
notes: Expressed in HEK293T cells and used as cell lysate; also called CLuc-MTDH-HA; MTDH-CLuc
B3: MTDH (endogenous, SCP28 breast cancer cell lysate) (other, human, UniProt Q86UE4 1-582, looked up)
chain: MAARSWQDELAQQAEEGSARLREMLSVGLGFLRTELGLDLGLEPKRYPGWVILVGTGALGLLLLFLLGYGWAAACAGARKKRRSPPRKREEAAAVPAAAPDDLALLKNLRSEEQKKKNRKKLSEKPKPNGRTVEVAEGEAVRTPQSVTAKQPPEIDKKNEKSKKNKKKSKSDAKAVQNSSRHDGKEVDEGAWETKISHREKRQQRKRDKVLTDSGSLDSTIPGIENTITVTTEQLTTASFPVGSKKNKGDSHLNVQVSNFKSGKGDSTLQVSSGLNENLTVNGGGWNEKSVKLSSQISAGEEKWNSVSPASAGKRKTEPSAWSQDTGDANTNGKDWGRSWSDRSIFSGIGSTAEPVSQSTTSDYQWDVSRNQPYIDDEWSGLNGLSSADPNSDWNAPAEEWGNWVDEERASLLKSQEPIPDDQKVSDDDKEKGEGALPTGKSKKKKKKKKKQGEDNSTAQDTEELEKEIREDLPVNTSKTRPKQEKAFSLKTISTSDPAEVLVKNSQPIKTLPPATSTEPSVILSKSDSDKSSSQVPPILQETDKSKSNTKQNSVPPSQTKSETSWESPKQIKKKKKARRET
notes: Pulled down with anti-MTDH antibody and Protein-A/G beads; also called metadherin

Test [1] concerns the target T3, CLuc (firefly luciferase C-terminal fragment, 398-550aa) (UniProt P08659 398-550 = luciferase).
T3 construct: Fragment alone, without MTDH
Description: split-luciferase complementation, 293T cells. As for the experimental part:
(§1) Luciferase-based screening. Seed HEK293T cells on 3×15 cm dish at 18-24 hr before transfection with 7-8×10⁶ cells per dish targeting 70-80% confluence when start transfection. 20 μg of pCDNA3.1-SND1-NLuc, pCDNA3.1-CLuc-MTDH, or 2 μg of pCDNA3.1-NLuc-CLuc plasmids that described above were transfected to each dish. 72 hr after transfection the cells were lysed with 5 ml of luciferase lysis buffer (2 mM EDTA, 20 mM DTT, 10% glycerol, 1% Triton X-100, 25 mM Tris base, adjusted to pH7.8 with H₃PO₄) at 4° C. for 20 min. The protein lysates were centrifuged at 13,000 rpm for 10 min, and the supernatant were collected.
(§2) For small chemical compound screening, white, flat-bottom, solid 384-well plates were used. Compounds were added into each well as 0.1 μl of 10 mM DMSO solution (or same amount of DMSO, serve as control). The first and last columns were free, and MTDH wild type ([…]) or mutant ([…]) peptides were added as positive and negative controls right before screening. Same amount of MTDH-CLuc and SND1-NLuc were pre-mixed at 4° C. for 30 min to generate split-luc. 5 μl of split- or linked-luc was added into each well. 15 μl of luciferase assay buffer (25 mM Glycylglycine pH 7.8, 15 mM K₃PO₄ pH 7.8, 15 mM MgSO₄, 4 mM EGTA, 2 mM ATP added just before use, 10 mM DTT added just before use and 1 mM D-Luciferin added just before use) was then added into each well to get a 20 μl reaction system with 50 μM of compounds (peptides) in each well. The plates were incubated at 4° C. for 1 hr and luciferase activity at each well was measured.

The target in test [2] is B1. Description: split-luciferase competition assay, HEK293T lysates. As for the experimental part: as §1
as §2, with “15 μl of luciferase assay buffer (25 mM Glycylglycine pH 7.8, 15 mM K₃PO₄ pH 7.8, 15 mM MgSO₄, 4 mM EGTA, 2 mM ATP added just before use, 10 mM DTT added just before use and 1 mM D-Luciferin added just before use) was then added into each well to get a 20 μl reaction system with 50 μM of compounds (peptides) in each well.” left out

Test [3] deals with T1, SND1 (endogenous, SCP28 breast cancer …). The experiment in a line: Co-IP competition, SCP28 lysate, anti-MTDH antibody, Western blot for SND1. As for the experimental part:
(§3) FIG. 10E, Schematic diagram of Co-IP based confirmation of MTDH-SND1 inhibitory compounds (left). SCP28 cells were lysed for IP assay.2 μg of MTDH antibody together with 500 μM of MTDH wild type (Pep-WT) or mutant (Pep-MT) peptides were added into each 1 ml of samples. Red star indicates wild type MTDH peptide competing off SND1 that binds to MTDH.
(§4) Co-immunoprecipitation assay (Co-IP), which is a commonly used standard test to determine protein-protein interaction, was next employed to validate the candidates. Lysates of breast cancer cell line SCP28, a single cell-derived subline from the MDA-MB-231 TNBC cell line²⁵, was immunoprecipitated with anti-MTDH antibody alone or together with inhibitors (FIG. 3F and FIG. 10E). The samples were then incubated with Protein-A/G beads to pull down MTDH, followed by Western blot analysis to detect SND1. In such co-TP experiment, MTDH-WT but not MTDH-MT peptide blocks MTDH-SND1 interaction (FIG. 10E). […] Using multiple screening and validation platforms, two classes of compounds, C26s and C32s, were obtained that inhibit MTDH-SND1 interaction.
For orientation: In western blotting, separated proteins are transferred to a membrane and probed.

In test [4] the target is B1. Description: split-luciferase complementation, 293T cells. As for the experimental part: as §1, §2
In test [5] the target is T4, NLuc (firefly luciferase N-terminal fragment, 1-416aa) (UniProt P08659 1-416 = luciferase).
T4 construct: range 1-416; Fragment alone, without SND1
The experiment in a line: split-luciferase complementation, 293T cells. The procedure:
as §1, §2

For test [6], the target named is B1. The experiment in a line: split-luciferase competition assay, 50 µM peptide, competitor of CLuc-MTDH. The procedure:
as §1
as §2, with “15 μl of luciferase assay buffer (25 mM Glycylglycine pH 7.8, 15 mM K₃PO₄ pH 7.8, 15 mM MgSO₄, 4 mM EGTA, 2 mM ATP added just before use, 10 mM DTT added just before use and 1 mM D-Luciferin added just before use) was then added into each well to get a 20 μl reaction system with 50 μM of compounds (peptides) in each well.” left out

Test [7] addresses T2, SND1-NLuc. Description: split-luciferase assay (inhibition of SND1-NLuc/CLuc-MTDH interaction).
Test [8] deals with T1, SND1 (endogenous, SCP28 breast cancer …). Description: Co-IP from SCP28 lysate with 2 µg MTDH antibody. As for the experimental part: as §3, §4

Usually IC50 stands for the midpoint of a concentration-inhibition curve.

Take B1: the binding result in test [1] is listed as “no binding”.
Turning to PNSDANAPAEEAGNW (also called Pep-MT; MTDH mutant peptide) [mutant MTDH (MTDH-MT) peptide], the binding result with SND1-NLuc [2] is “no binding (tested: 50 µM)”; in test [3], “no binding (tested: 500 µM)”.
As to B2, the binding result with SND1-NLuc [4] is listed as “binds”; in test [5] it was “no binding”.
As for PNSDWNAPAEEWGNW (also called MTDH-WT peptide; Pep-WT) [wild type MTDH (MTDH-WT) minimal peptide], the binding result (in test [3]; with SND1-NLuc [6]) was “binds” in each case. The same molecule gave an IC50 in the test with SND1-NLuc [7] of 1200 nM.
Take B3: in test [8], the binding result is “binds”.
